The text below walks through data of doi:10.1101/2023.06.23.546240.

Holding throughout (test): SPR
Common to all, as to details: not given in the material (no Methods text)

For one data set, the target named is HILI (PIWIL2) (human) (UniProt Q8TC59).
Another data set deals with MILI (PIWIL2) (mouse) (UniProt Q8CDG1).
The target of data set [1] is T1, EfPiwi (Ephydatia fluviatilis) (UniProt D5MRY8).
T1 sequence: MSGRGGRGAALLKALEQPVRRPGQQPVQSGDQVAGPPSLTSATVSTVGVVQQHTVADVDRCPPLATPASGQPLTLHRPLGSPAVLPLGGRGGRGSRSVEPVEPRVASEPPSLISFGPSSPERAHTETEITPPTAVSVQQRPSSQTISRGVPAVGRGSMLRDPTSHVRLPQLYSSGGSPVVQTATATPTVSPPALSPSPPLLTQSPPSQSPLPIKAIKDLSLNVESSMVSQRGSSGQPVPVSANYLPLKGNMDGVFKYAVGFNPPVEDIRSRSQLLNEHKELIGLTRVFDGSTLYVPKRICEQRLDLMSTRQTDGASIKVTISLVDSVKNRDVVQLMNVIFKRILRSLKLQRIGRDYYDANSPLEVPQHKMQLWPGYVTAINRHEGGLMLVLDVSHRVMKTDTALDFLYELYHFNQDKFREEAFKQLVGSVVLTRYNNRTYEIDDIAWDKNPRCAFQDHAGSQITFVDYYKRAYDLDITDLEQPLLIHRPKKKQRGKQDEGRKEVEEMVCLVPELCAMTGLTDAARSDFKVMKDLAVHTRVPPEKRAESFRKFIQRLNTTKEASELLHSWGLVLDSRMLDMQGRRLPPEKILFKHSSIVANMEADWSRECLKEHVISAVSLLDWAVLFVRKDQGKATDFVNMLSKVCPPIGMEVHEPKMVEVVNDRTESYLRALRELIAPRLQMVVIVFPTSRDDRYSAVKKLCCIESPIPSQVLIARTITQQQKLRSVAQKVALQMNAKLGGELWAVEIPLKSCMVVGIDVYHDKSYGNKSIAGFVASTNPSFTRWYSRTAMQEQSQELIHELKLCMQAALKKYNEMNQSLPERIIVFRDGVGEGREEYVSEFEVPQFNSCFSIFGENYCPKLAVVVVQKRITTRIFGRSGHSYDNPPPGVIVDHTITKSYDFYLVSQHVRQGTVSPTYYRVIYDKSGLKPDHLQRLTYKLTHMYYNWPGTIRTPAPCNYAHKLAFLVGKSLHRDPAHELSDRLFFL

MILI (PIWIL2) (mouse), sequence (Q8CDG1 whole entry): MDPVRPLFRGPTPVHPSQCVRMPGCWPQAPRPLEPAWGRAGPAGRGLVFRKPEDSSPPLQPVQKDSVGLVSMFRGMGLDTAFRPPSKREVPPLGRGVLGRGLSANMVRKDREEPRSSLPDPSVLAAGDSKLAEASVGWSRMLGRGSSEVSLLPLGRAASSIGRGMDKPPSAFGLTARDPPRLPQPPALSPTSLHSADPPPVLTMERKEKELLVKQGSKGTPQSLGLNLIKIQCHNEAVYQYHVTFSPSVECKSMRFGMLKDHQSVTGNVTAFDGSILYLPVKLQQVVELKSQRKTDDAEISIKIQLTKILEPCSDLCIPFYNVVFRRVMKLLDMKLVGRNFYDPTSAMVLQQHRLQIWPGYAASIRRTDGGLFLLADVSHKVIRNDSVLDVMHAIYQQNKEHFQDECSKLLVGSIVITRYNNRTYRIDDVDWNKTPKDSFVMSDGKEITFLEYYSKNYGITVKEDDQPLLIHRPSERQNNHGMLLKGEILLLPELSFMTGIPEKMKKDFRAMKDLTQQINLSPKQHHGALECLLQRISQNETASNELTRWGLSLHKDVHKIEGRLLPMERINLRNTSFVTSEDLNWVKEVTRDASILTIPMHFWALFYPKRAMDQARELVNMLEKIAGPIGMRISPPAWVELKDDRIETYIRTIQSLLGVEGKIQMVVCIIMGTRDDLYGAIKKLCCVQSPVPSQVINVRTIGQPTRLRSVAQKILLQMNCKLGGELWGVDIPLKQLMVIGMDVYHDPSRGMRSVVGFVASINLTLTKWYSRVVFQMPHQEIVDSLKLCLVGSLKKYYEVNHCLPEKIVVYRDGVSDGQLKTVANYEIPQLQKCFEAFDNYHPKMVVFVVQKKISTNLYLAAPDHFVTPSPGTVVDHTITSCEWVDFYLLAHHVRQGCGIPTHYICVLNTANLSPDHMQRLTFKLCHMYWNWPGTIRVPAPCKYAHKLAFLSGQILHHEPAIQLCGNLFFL
HILI (PIWIL2) (human), sequence (Q8TC59 whole entry): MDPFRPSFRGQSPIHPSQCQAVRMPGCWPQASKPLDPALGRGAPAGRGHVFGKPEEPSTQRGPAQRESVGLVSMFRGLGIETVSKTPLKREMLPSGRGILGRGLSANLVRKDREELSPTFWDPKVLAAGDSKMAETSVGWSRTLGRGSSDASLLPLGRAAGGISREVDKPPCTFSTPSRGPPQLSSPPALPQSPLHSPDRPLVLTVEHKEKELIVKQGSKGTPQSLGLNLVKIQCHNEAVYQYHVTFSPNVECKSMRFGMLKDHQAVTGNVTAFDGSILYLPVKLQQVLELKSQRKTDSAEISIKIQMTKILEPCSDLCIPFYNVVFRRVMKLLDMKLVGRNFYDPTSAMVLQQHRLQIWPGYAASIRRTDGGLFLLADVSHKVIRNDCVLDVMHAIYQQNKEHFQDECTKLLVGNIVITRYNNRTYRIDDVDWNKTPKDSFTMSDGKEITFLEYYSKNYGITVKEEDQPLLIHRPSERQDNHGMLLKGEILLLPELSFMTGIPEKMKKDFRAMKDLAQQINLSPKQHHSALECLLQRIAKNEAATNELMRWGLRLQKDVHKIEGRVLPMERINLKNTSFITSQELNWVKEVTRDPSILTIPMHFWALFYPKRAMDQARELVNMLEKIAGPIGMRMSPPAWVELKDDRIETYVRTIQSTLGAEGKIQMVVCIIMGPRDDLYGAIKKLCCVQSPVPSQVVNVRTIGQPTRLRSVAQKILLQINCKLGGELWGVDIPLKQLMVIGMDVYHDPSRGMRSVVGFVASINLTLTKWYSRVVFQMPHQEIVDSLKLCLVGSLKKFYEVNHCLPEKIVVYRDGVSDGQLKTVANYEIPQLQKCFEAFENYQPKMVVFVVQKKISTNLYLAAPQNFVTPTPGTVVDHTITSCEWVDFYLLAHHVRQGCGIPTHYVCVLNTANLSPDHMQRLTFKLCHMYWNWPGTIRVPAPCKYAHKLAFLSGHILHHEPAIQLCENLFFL

As for “piRNA guide + seed-complementary (g2-g8) target”, the binding signal (fold higher affinity than EfPiwi) with HILI (PIWIL2) (human) and with MILI (PIWIL2) (mouse) was 6 throughout. With “piRNA guide + target with g3-g4 dinucleotide mismatch”, the binding signal (fold higher KD than MILI or HILI) in data set [1] stood at 20.
